From patent US20220098306A1 (published 2022)

T1: huB7H3 (V1C1)
T1 chain: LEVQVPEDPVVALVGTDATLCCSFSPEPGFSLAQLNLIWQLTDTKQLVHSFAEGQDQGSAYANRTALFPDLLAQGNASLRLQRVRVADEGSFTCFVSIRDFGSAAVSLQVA

T2: huB7H3 (V2C2)
T2 chain: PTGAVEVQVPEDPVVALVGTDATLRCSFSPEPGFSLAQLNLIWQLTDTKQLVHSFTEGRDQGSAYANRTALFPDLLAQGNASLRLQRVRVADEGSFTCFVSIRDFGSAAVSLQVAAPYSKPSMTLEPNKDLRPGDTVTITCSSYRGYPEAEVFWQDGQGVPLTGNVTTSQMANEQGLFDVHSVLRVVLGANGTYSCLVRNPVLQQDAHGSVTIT

T3: mouse Fc fusion of B7H3, full extracellular V1C1-V2C2 domain (human, UniProt Q5ZPR3 29-466)
T3 chain: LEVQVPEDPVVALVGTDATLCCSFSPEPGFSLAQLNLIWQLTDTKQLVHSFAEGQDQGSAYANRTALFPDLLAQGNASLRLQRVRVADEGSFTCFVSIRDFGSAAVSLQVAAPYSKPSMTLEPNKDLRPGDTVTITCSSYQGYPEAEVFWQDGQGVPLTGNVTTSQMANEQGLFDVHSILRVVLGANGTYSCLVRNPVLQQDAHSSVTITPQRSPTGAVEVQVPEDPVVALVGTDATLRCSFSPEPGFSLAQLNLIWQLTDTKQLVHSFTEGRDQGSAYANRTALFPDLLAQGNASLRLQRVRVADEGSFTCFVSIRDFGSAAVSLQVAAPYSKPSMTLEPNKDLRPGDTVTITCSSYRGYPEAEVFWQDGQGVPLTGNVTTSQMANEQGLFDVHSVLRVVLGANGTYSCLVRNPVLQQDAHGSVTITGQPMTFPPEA

B1: XENP28428 (antibody, V domains shown)
VH: EVQLLESGGGLVQPGGSLRLSCAASGFTFSSYAMSWVRQAPGKGLEWVSTISGSGDSTYYADSVKGRFTISRDNSKNTLYLQMNSLRAEDTAVYYCAKSGPGLRQVGFDYWGQGTLVTVSS
VL: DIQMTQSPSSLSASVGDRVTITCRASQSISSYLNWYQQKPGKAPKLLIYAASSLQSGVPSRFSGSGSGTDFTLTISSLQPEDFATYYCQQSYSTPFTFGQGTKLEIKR
B2: XENP34728 (6A1) (antibody, V domains shown)
VH: EVQLLESGGGLVQPGGSLRLSCAASGFTFSNYYMAWVRQAPGKGLEWVSSISTGGGSTYYRDSVKGRFTISRDNSKSTLYLQMNSLRAEDTAVYYCTTDLSAIAATPFAYWGQGTLVTVSS
VL: DIQMTQSPSSLSASVGDRVTITCRASQNIYTSLAWYQQKPGKAPKLLIYNAHSLQTGIPSRFSGSGSGADFTLTISSLQPEDFATYFCQQYYSGLTFGSGTKLEIKR
B3: human B7H3 (V1C1-V2C2) (ligand)
chain: T3 chain
B4: XENP34717 (bispecific antibody)
heavy 1: EVQLLESGGGLVQPGGSLRLSCAASGFTFSSYYMSWVRQAPGKGLEWVSTISESGDSTYYADSVKGRFTISRDNSKNTLYLQMNSLRAEDTAVYYCAKSGPGLRQVGFDYWGQGTLVTVSSASTKGPSVFPLAPSSKSTSGGTAALGCLVKDYFPEPVTVSWNSGALTSGVHTFPAVLQSSGLYSLSSVVTVPSSSLGTQTYICNVNHKPSDTKVDKKVEPKSCDKTHTCPPCPAPPVAGPSVFLFPPKPKDTLMISRTPEVTCVVVDVKHEDPEVKFNWYVDGVEVHNAKTKPREEEYNSTYRVVSVLTVLHQDWLNGKEYKCKVSNKALPAPIEKTISKAKGQPREPQVYTLPPSREEMTKNQVSLTCDVSGFYPSDIAVEWESDGQPENNYKTTPPVLDSDGSFFLYSKLTVDKSRWEQGDVFSCSVMHEALHNHYTQKSLSLSPGK
heavy 2: QVQLVQSGAEVKKPGASVKVSCKASGYIFTNNYMHWVRQAPGQGLEWMGIISPSVGRTAYAQKFQGRVTMTRDTSTSTVYMELSSLRSEDTAVYYCARGGGSSPRLDYWGQGTLVTVSSASTKGPSVFPLAPSSKSTSGGTAALGCLVKDYFPEPVTVSWNSGALTSGVHTFPAVLQSSGLYSLSSVVTVPSSSLGTQTYICNVNHKPSNTKVDKKVEPKSCDKTHTCPPCPAPPVAGPSVFLFPPKPKDTLMISRTPEVTCVVVDVKHEDPEVKFNWYVDGVEVHNAKTKPREEQYNSTYRVVSVLTVLHQDWLNGKEYKCKVSNKALPAPIEKTISKAKGQPREPQVYTLPPSREQMTKNQVKLTCLVKGFYPSDIAVEWESNGQPENNYKTTPPVLDSDGSFFLYSKLTVDKSRWQQGNVFSCSVMHEALHNHYTQKSLSLSPGK
light: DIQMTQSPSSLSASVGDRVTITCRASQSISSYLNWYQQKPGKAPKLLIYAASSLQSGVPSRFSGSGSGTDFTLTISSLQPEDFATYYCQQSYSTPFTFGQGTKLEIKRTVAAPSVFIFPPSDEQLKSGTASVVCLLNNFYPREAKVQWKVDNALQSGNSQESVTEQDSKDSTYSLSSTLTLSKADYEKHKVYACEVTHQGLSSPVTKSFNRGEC

Tests used:
[1] = molecular target: CD28 (antigen of the affinity determinations) (human, UniProt P10747 19-152); assay: Octet; avid
huB7H3 (V1C1) = molecular target: T1, huB7H3 (V1C1); assay: Octet
huB7H3 (V2C2) = molecular target: T2, huB7H3 (V2C2); assay: Octet
[2] = molecular target: T3, mouse Fc fusion of B7H3, full …; assay: Octet

Row | Binder | Kd [1] [nM] | Kd (huB7H3 (V1C1)) [nM] | Kd (huB7H3 (V2C2)) [nM] | Kd [2] [nM] | Kd (4F12_H2_L1.1) [nM]
1 | B1 | 14.5 | – | – | – | –
2 | B2 | – | 4.4 | 6.4 | 4.3 | –
3 | B3 | – | – | – | – | < 0.1
4 | B4 | – | 21 | 21 | 16 | –
